Data: patent US6875571B2, “NF-AT polypeptides and polynucleotides and screening methods for immunosuppressive agents” (The Board of Trustees of the Leland Stanford Junior …, priority 1991, dated 2005)

Columns and labels:
Format in all cases: cell-based, human
[1] = system: RSV promoter and enhancer; experiment: Secreted alkaline phosphatase reporter in Jurkat Tag cells, RSV reporter; settings: transfection, no stimulation
Method: (§1) Jurkat Tag cells were transfected with vector plasmid (control) or with the dominant negative NF-ATc plasmid, plus the indicated secreted alkaline phosphatase reporter plasmid. Transfected cells were transferred to fresh culture medium 24 hours after transfection and secreted alkaline phosphatase activity was measured (Clipstone and Crabtree (1992) Nature 357: 695-698) 16 to 24 hours later, after stimulation with 1 uM ionomycin plus 20 ng/ml PMA (NF-AT and IL-2 reporters), 20 ng/ml PMA alone (AP-1 reporter) or no stimulation (RSV reporter). Bars indicate, secreted alkaline phosphatase activity from cells transfected with the dominant negative NF-ATc as a percentage of the activity from cells transfected in parallel with control plasmid, and represent data obtained from (n) independent transfections. The dominant negative NF-ATc consists of a carboxy terminal truncation of the epitope tagged NF-ATc expression plasmid extending to the PvuII site at amino acid 463.
(§2) The dominant negative NF-ATc used consists of a carboxy terminal truncation of the epitope tagged NF-ATc expression plasmid (supra) extending to the PvuII site at amino acid 463.

[2] = system: AP-1 site; experiment: Secreted alkaline phosphatase reporter in Jurkat Tag cells, AP-1 reporter; settings: transfection, 20 ng/ml PMA alone
Method: as §1, §2

[3] = system: IL-2 promoter; experiment: Secreted alkaline phosphatase reporter in Jurkat Tag cells, IL-2 reporter; settings: transfection, 1 uM ionomycin plus 20 ng/ml PMA
Method: as §1, §2

[4] = system: NF-AT site; experiment: Secreted alkaline phosphatase reporter in Jurkat Tag cells, NF-AT reporter; settings: transfection, 1 uM ionomycin plus 20 ng/ml PMA
Method: as §1, §2

B1: dominant negative NF-ATc: carboxy terminal truncation of the epitope tagged NF-ATc expression plasmid extending to the PvuII site at amino acid 463 (protein, UniProt Q13469 1-463, looked up, fragment)
chain: MNAPERQPQPDGGDAPGHEPGGSPQDELDFSILFDYEYLNPNEEEPNAHKVASPPSGPAYPDDVLDYGLKPYSPLASLSGEPPGRFGEPDRVGPQKFLSAAKPAGASGLSPRIEITPSHELIQAVGPLRMRDAGLLVEQPPLAGVAASPRFTLPVPGFEGYREPLCLSPASSGSSASFISDTFSPYTSPCVSPNNGGPDDLCPQFQNIPAHYSPRTSPIMSPRTSLAEDSCLGRHSPVPRPASRSSSPGAKRRHSCAEALVALPPGASPQRSRSPSPQPSSHVAPQDHGSPAGYPPVAGSAVIMDALNSLATDSPCGIPPKMWKTSPDPSPVSAAPSKAGLPRHIYPAVEFLGPCEQGERRNSAPESILLVPPTWPKPLVPAIPICSIPVTASLPPLEWPLSSQSGSYELRIEVQPKPHHRAHYETEGSRGAVKAPTGGHPVVQLHGYMENKPLGLQIFIGTA
modifications: epitope tag
transcription directed by the RSV promoter and enhancer [1]: relatively unaffected
transcription directed by the AP-1 site [2]: relatively unaffected
inhibition of IL-2 promoter function [3]: more than 90%
inhibition of transcription directed by the NF-AT site [4]: more than 90%
